Patent EP4707393A1, “DOUBLE-STRANDED SIRNA, CONJUGATE THEREOF AND USE THEREOF” (CMS Research & Development Pte. Ltd., priority 2023, dated 2024)
pEC50: −log10 of the molar value.

Legend:
[1] = test system: human LPA gene (Genbank number: NM_005577.4); experiment: Inhibitory activity against LPA mRNA, psiCHECK-2 dual-luciferase reporter vector in Huh7 cells; assay type: cell-based; settings: Huh7 cells transfected with LPA_psiCHECK-2 plasmid, RNAiMAX transfection
Experimental: A stock solution was prepared by dissolving in PBS and stored at -20 °C.
The human LPA gene (Genbank number: NM_005577.4) was cloned into the psiCHECK™-2 vector.
Huh7 cells were cultured in DMEM (Gibco-11995-065, 500 mL) medium, supplemented with FBS (ExCellBio-FSP500, 57 mL), Penicillin-Streptomycin solution (Hyclone-SV30010, 5.7 mL), GlutaMAX™ (Gibco-35050-061, 5.7 mL) and Non-Essential Amino Acids Solution (Gibco-11140050, 5.7 mL).
On Day 1, a method for transfection of the LPA_PSICHECK (TM)-2 plasmid is briefly described as follows: Huh7 cells were washed with DPBS, followed by digestion with 0.05% trypsin, gently pipetted into single cells in DMEM containing 10% FBS, and counted. Plasmid DNA was transferred into Huh7 cells using Fugene HD. The transfected cells were seeded into 96-well plates at a density of 10,000 cells per well, with 100 µL culture medium per well. The cells were incubated overnight in a 5% CO2 incubator at 37 °C.
On Day 2, the test compounds were diluted serially with PBS to 3 concentrations.
RNAiMAX transfection reagent was prepared by blending homogeneously with Opti-MEM at a ratio of RNAiMAX: Opti-MEM=3:47 in a 15 mL centrifuge tube as needed. The compounds were mixed with the RNAiMAX/Opti-MEM (1:1) and incubated for 15 min. The compound-containing RNAiMAX/Opti-MEM mixture was diluted 10-fold with fresh medium and blended homogeneously.
The medium in each well was aspirated, and then 100 µL of the fresh compound-containing medium was added, and then incubated in a 5% CO2, 37 °C incubator.
Experimental procedures refer to DUAL-GLO® Dual Luciferase Assay System instructions, briefly described as follows: Taking out the cells from the incubator, aspirating and discarding the supernatant, adding 75µL fresh culture medium and 75µL detection reagent, shaking for 10 minutes in the dark, and after the cells had been fully lysed, transfering100µL sample to an opaque whiteboard for detecting the Firefly luminescence signal; adding 50 µL Dual-Glo®Stop & Glo® test reagent to each well and detecting the Renilla luciferase signal after shaking for 10 minutes in the dark. The ratio of the reporter signal to the internal control reporter signal was calculated for each well.
[formula] % Inhibition = (1-Sampleratio/RNAiMAXcontrolratio) × 100% [formula]

hPBMCs = experiment: Immunogenicity test in hPBMCs (IL-6 and TNF-α ELISA of supernatant); assay type: cell-based, human; settings: donor 1 hPBMCs, 18-20 h
Experimental: 1 Experimental material • 1.1 Double-stranded siRNA conjugates • 1.2 hPBMCs, purchased from Shanghai Sailybio Medical Co., LTD. • 1.3 Main reagents: Penicillin-Streptomycin (Cat. No.: 15140122), RNase-free water (Cat. No.: AM9938), IL-6 ELISA kit (Cat. No.: 555220), TNF-α ELISA kit (Cat. No.: 555212), LPS (Cat. No.: L2630), etc. 2 Experimental method • 2.1 Compound Preparation: Compounds were prepared as stock solutions with enzyme-free water. Compound weight = powder weight * purity. The concentration of prepared solutions was 900 µg/mL, followed by three-fold serial dilution with enzyme-free water. Each concentration was diluted 10-fold with 1640 medium, resulting in a final enzyme-free water content of 5.0%. • 2.2 Experimental procedure: • 2.2.1 PBMC cells were resuscitated one day in advance and incubated overnight in 1640 complete medium. • 2.2.2 On the day of the experiment, PBMC cells were centrifuged at 300 × g for 8 minutes, and the cell density was adjusted to 1.6 × 10^6 mL with 1640 complete medium. The cells were then added to a 96-well plate, 125 µL per well, and incubated in a 37 °C, 5% CO2 incubator for 15 minutes. • 2.2.3 The diluted test compounds were added to the 96-well plate according to the plate map, all in duplicate, 125 µL for each well; the positive control group and the blank group were added with an equal volume of 1640 complete culture medium containing the same amount of enzyme-free water. • 2.2.4 After gently shaking, the well plates were incubated in an incubator at 37 °C for 18-20 h. The supernatant was collected by centrifugation, and secretions of TNF-α and IL-6 were detected by ELISA. • 2.2.5 Data were analyzed using GraphPad Prism 8 software. 3 Experimental results Table 10. IL-6 and TNF-α levels in the cell supernatant of donor 1 hPBMCs treated with different doses of test compounds

Row | Substance | pEC50 [1] | IL-6 (hPBMCs; 5 µg/mL) | TNF alpha (hPBMCs; 5 µg/mL) | IL-6 (hPBMCs; 15 µg/mL) | TNF alpha (hPBMCs; 15 µg/mL) | IL-6 (hPBMCs; 45 µg/mL) | TNF alpha (hPBMCs; 45 µg/mL)
1 | Z37: siRNA conjugate: sense SEQ ID NO:51, ligand D18 at 3' end of sense strand, antisense SEQ ID NO:76 (sense CCTGCCAAGCTTGGTCATCTA; antisense TAGATGNCCAAGCTTGGCNGGTT; ligand D18 at sense 3' end; listed as RNA; modified_base 1..2: mod_base = OTHER; note = 2'-O-methylcytidine; modified_base 3: mod_base = OTHER; note = 2'-O-methyluridine; modified_base 4: mod_base = OTHER; note = 2'-O-methylguanosine; modified_base 5..6: mod_base = OTHER; note = 2'-O-m; modified_base 1: mod_base = OTHER; note = E-type vinylphosphonate-modified 2'-O-methyluridine; modified_base 2: mod_base = OTHER; note = 2'-deoxyadenosine; modified_base 4: mo) | 9.64 | – | – | – | – | – | –
2 | Z9: siRNA conjugate: sense SEQ ID NO:33, ligand D08 at 3' end of sense strand, antisense SEQ ID NO:56 (sense CCCTTATTGTTATACG; antisense ATCCCTCGTANAACAATAAGGGGCTGTT; ligand D08 at sense 3' end; listed as RNA; modified_base 1..2: mod_base = OTHER; note = 2'-O-methylcytidine; modified_base 3: mod_base = OTHER; modified_base 4..5: mod_base = OTHER; note = 2'-O-methyluridine; modified_base 6: mod_base = OTHER; note = 2'-O-me; modified_base 1: mod_base = OTHER; note = 2'-O-methyladenosine; modified_base 2: mod_base = OTHER; note = 2'-O-met) | 8.75 | – | – | – | – | – | –
3 | Z22: siRNA conjugate: sense SEQ ID NO:38, ligand D18 at 3' end of sense strand, antisense SEQ ID NO:64 (sense NNCCCCTTATTGTTATACNA; antisense TCTCGTANAACAATAAGGGGCTGTT; 2'-OMe/2'-F modified, ligand at sense 3' end, full pattern not given here) | 9.55 | – | – | – | – | – | –
4 | Z38: siRNA conjugate: sense SEQ ID NO:49, ligand D01 at 3' end of sense strand, antisense SEQ ID NO:77 (sense CAGCCCCTTATTGTTATACGA; antisense NCGTATNACAATAAGGGGCNGTT; ligand D01 at sense 3' end; listed as RNA; modified_base 1: mod_base = OTHER; note = 2'-O-methylcytidine; modified_base 2: mod_base = OTHER; note = 2'-O-methyladenosine; modified_base 3: mod_base = OTHER; note = 2'-O-methylguanosine; modified_base 4..7: mod_base = OTHER; note = 2'-O-me; note = n is mDVPU; note = 2'-deoxycytidine; modified_base 4: mod_base = OTHER; note = 2'-O-methyluridine;) | – | 1281.4 pg/mL | 33.5 pg/mL | 1257.1 pg/mL | 34.8 pg/mL | 1268.3 pg/mL | 34.4 pg/mL
5 | Z11: siRNA conjugate: sense SEQ ID NO:27, ligand D08 at 3' end of sense strand, antisense SEQ ID NO:59 (sense CCCTTATTGTTATACG; antisense ATCCCTCGTANAACAATAAGGGGCTGCC; 2'-OMe/2'-F modified, ligand at sense 3' end, full pattern not given here) | 9.25 | – | – | – | – | – | –
6 | Z39: siRNA conjugate: sense SEQ ID NO:49, ligand D21 at 3' end of sense strand, antisense SEQ ID NO:77 (sense CAGCCCCTTATTGTTATACGA; antisense NCGTATNACAATAAGGGGCNGTT; ligand D21 at sense 3' end; listed as RNA; modified_base 1: mod_base = OTHER; note = 2'-O-methylcytidine; modified_base 2: mod_base = OTHER; note = 2'-O-methyladenosine; modified_base 3: mod_base = OTHER; note = 2'-O-methylguanosine; modified_base 4..7: mod_base = OTHER; note = 2'-O-me; note = n is mDVPU; note = 2'-deoxycytidine; modified_base 4: mod_base = OTHER; note = 2'-O-methyluridine;) | – | 1333.6 pg/mL | 31.4 pg/mL | 1304.8 pg/mL | 32.6 pg/mL | 1297.0 pg/mL | 33.3 pg/mL
7 | Z44: siRNA conjugate: sense SEQ ID NO:51, ligand D01 at 3' end of sense strand, antisense SEQ ID NO:82 (sense CCTGCCAAGCTTGGTCATCTA; antisense NAGATGNCCAAGCTTGGCNGGTT; ligand D01 at sense 3' end; listed as RNA; modified_base 1..2: mod_base = OTHER; note = 2'-O-methylcytidine; modified_base 3: mod_base = OTHER; note = 2'-O-methyluridine; modified_base 4: mod_base = OTHER; note = 2'-O-methylguanosine; modified_base 5..6: mod_base = OTHER; note = 2'-O-m; modified_base 1: mod_base = OTHER; note = n is mDVPU; modified_base 2: mod_base = OTHER; note = 2'-deoxyadenosine; note = 2'-O-methyladenosi) | – | 1326.7 pg/mL | 34.6 pg/mL | 1331.0 pg/mL | 35.2 pg/mL | 1354.7 pg/mL | 35.8 pg/mL
8 | Z45: siRNA conjugate: sense SEQ ID NO:50, ligand D01 at 3' end of sense strand, antisense SEQ ID NO:82 (sense CCTGCCAAGCTTGGTCATCTA; antisense NAGATGNCCAAGCTTGGCNGGTT; ligand D01 at sense 3' end; listed as RNA; modified_base 1..2: mod_base = OTHER; note = 2'-O-methylcytidine; modified_base 3: mod_base = OTHER; note = 2'-O-methyluridine; modified_base 4: mod_base = OTHER; note = 2'-O-methylguanosine; modified_base 5..6: mod_base = OTHER; note = 2'-O-m; modified_base 1: mod_base = OTHER; note = n is mDVPU; modified_base 2: mod_base = OTHER; note = 2'-deoxyadenosine; note = 2'-O-methyladenosi) | – | 1327.5 pg/mL | 35.3 pg/mL | 1321.5 pg/mL | 35.1 pg/mL | 1321.4 pg/mL | 34.9 pg/mL
